The values that follow come from PMC6602930.

Test [1] deals with Recombinant nucleoplasmin, full length (rNP) (X. laevis) (UniProt P05221). The experiment in a line: native gel or EMSA; NP alone on 4-16% native PAGE (Figs 2B and S3); pentamers to decamer. For orientation: In EMSA bound probe runs differently from free probe, usually more slowly.
For test [2], the target named is Crosslinked histone octamer (dimethyl suberimidate) (not stated (chicken erythrocyte or recombinant histones)). Put plainly: native gel or EMSA; 8% native PAGE run from the positive to the negative electrode; fixed histones (10 µM H2A-H2B or H3-H4 dimers, 2.5 µM octamer) with increasing tail domain, 150 mM NaCl, 20 mM Tris-HCl pH 7.6, RT, 1 h.
The target of test [3] is Histone H2A-H2B dimer, natural source (chicken erythrocyte chromatin) (chicken) (UniProt P02263). The test is described as above.
Test [4] concerns the target Alexa 488-labelled, crosslinked recombinant histone octamer (H2A, H2B T112C-Alexa 488, H3 C110A, H4 T71C) (UniProt P06897). Put plainly: other fluorescence titration; 5 nM Alexa 488-labelled octamer titrated with NP (pentamer concentration); 150 mM NaCl, 1 mM DTT, 0.1 mg/ml BSA, 20 mM Tris-HCl pH 7.5; ligand-depleted model with two pentamers per octamer; apparent.

The term stoichiometry N denotes the number of molecules, sites or subunits per partner or assembly. “Recombinant nucleoplasmin, full length (rNP) (from UniProt P05221 1-200) (natural protein)”: in test [1], the stoichiometry N turned out to be 10.
Consider “Phosphomimetic C-terminal tail domain of nucleoplasmin (rNP113–200-4D) (from UniProt P05221 113-200) (domain or fragment)”, for which, in test [2], the stoichiometry N (C-terminal tails per crosslinked octamer) worked out at 4. This substance also had a stoichiometry N (tail domain/H2A-H2B dimer) in test [3] of 1.
In the case of “Egg nucleoplasmin (eNP) from X. laevis, natural hyperphosphorylated pentamer (from UniProt P05221 1-200) (natural protein)”, the Kd in test [4] came out at 0.04 nM.
On the same count and under the same terms, next, “Recombinant nucleoplasmin lacking the last 50 residues (rNPΔ150–200) (from UniProt P05221 1-149) (domain or fragment)”: 0.27 nM.
